T1: human IL-12 (human, UniProt P29460 23-328; P29459 23-219)
T1 construct: also called Interleukin-12
T1 sequence 1: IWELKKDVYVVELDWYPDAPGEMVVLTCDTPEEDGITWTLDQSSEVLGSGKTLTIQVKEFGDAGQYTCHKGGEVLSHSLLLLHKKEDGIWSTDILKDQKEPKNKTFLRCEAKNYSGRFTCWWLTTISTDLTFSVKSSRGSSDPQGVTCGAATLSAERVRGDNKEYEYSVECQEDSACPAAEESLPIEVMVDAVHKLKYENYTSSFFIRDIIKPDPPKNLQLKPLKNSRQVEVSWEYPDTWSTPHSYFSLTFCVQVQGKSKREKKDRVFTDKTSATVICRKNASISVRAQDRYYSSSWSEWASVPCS
T1 sequence 2: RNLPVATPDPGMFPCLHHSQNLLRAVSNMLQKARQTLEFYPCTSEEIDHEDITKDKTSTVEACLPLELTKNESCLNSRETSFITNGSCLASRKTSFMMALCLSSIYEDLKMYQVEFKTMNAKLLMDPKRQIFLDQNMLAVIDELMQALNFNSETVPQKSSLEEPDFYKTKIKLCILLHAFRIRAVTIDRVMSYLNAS


These binders were tested against T1, human IL-12 (assay: SPR (Biacore T200), 37 C, pH 7.4; captured antibody, IL-12 analyte).
Method: The affinity of anti-IL-12 antibodies binding to human IL-12 at pH 7.4 were determined at 37 degrees C. using Biacore T200 instrument (Cytiva). Anti-human Fc antibody (Cytiva) was immobilized onto all flow cells (FCs) of a CM4 sensor chip using amine coupling kit (Cytiva). All antibodies and analytes were prepared in ACES pH 7.4 containing 20 mM ACES, 150 mM NaCl, 0.05% Tween 20, 0.005% NaN₃. Each antibody was captured onto the sensor surface by anti-human Fc antibody. Antibody capture levels were aimed at 50 response unit (RU). 5 nM of human IL-12 were injected as analyte, followed by dissociation. Sensor surface was regenerated each cycle with 3M MgCl₂. […] Based on the results in Table 9, it is observed that binding kinetics of anti-IL-12 antibody AbI variants towards IL-12 were not drastically changed compared to control (−/−).

Binder | Kd [nM]
Anti-IL-12 antibody Ab1 variant W103I VH/A43Q, Y49A VL (antibody, name in Kabat numbering, Ab1 with VH/VL interface substitutions; Kabat numbering) heavy: not shown light: DIVMTQSPLSLPVTPGEPASISCRASQSISINLHWYQQKPGQQPRLLIAFASQSISGVPSRFSGSGSGTDFTLTISSLQPEDFATYYCQQSNSFPLTFGQGTKVEIKRTVAAPSVFIFPPSDEQLKSGTASVVCLLNNFYPREAKVQWKVDNALQSGNSQESVTEQDSKDSTYSLSSTLTLSKADYEKHKVYACEVTHQGLSSPVTKSFNRGEC | 1.6
Anti-IL-12 antibody Ab1 variant Y91A VH/- (antibody, name in Kabat numbering, V domains shown, Ab1 with VH/VL interface substitutions; Kabat numbering) VH: QVQLVQSGAEVKKPGSSVKVSCKASGGTFSDYYLHWVRQAPGQGLEWMGWIDPENGDTEYAPKFQGRVTITADESTSTAYMELSSLRSEDTAVYACARNKELRYFDVWGQGTLVTVSS VL: DIVMTQSPLSLPVTPGEPASISCRASQSISINLHWYQQKPGQAPRLLIYFASQSISGVPSRFSGSGSGTDFTLTISSLQPEDFATYYCQQSNSFPLTFGQGTKVEIKR | 0.948
Anti-IL-12 antibody Ab1 variant W103M VH/Y49A, Y87L VL (antibody, name in Kabat numbering, Ab1 with VH/VL interface substitutions; Kabat numbering) heavy: not shown light: DIVMTQSPLSLPVTPGEPASISCRASQSISINLHWYQQKPGQAPRLLIAFASQSISGVPSRFSGSGSGTDFTLTISSLQPEDFATYLCQQSNSFPLTFGQGTKVEIKRTVAAPSVFIFPPSDEQLKSGTASVVCLLNNFYPREAKVQWKVDNALQSGNSQESVTEQDSKDSTYSLSSTLTLSKADYEKHKVYACEVTHQGLSSPVTKSFNRGEC | 1.79
Anti-IL-12 antibody Ab1 variant W103M VH/P44A, Y49A VL (antibody, name in Kabat numbering, Ab1 with VH/VL interface substitutions; Kabat numbering) heavy: not shown light: DIVMTQSPLSLPVTPGEPASISCRASQSISINLHWYQQKPGQAARLLIAFASQSISGVPSRFSGSGSGTDFTLTISSLQPEDFATYYCQQSNSFPLTFGQGTKVEIKRTVAAPSVFIFPPSDEQLKSGTASVVCLLNNFYPREAKVQWKVDNALQSGNSQESVTEQDSKDSTYSLSSTLTLSKADYEKHKVYACEVTHQGLSSPVTKSFNRGEC | 1.07
Anti-IL-12 antibody Ab1 variant W103I VH/P44A, Y49A VL (antibody, name in Kabat numbering, Ab1 with VH/VL interface substitutions; Kabat numbering) heavy: not shown light: DIVMTQSPLSLPVTPGEPASISCRASQSISINLHWYQQKPGQAARLLIAFASQSISGVPSRFSGSGSGTDFTLTISSLQPEDFATYYCQQSNSFPLTFGQGTKVEIKRTVAAPSVFIFPPSDEQLKSGTASVVCLLNNFYPREAKVQWKVDNALQSGNSQESVTEQDSKDSTYSLSSTLTLSKADYEKHKVYACEVTHQGLSSPVTKSFNRGEC | 1.57
Anti-IL-12 antibody Ab1 variant W103M VH/- (antibody, name in Kabat numbering, Ab1 with VH/VL interface substitutions; Kabat numbering) heavy: not shown light: DIVMTQSPLSLPVTPGEPASISCRASQSISINLHWYQQKPGQAPRLLIYFASQSISGVPSRFSGSGSGTDFTLTISSLQPEDFATYYCQQSNSFPLTFGQGTKVEIKRTVAAPSVFIFPPSDEQLKSGTASVVCLLNNFYPREAKVQWKVDNALQSGNSQESVTEQDSKDSTYSLSSTLTLSKADYEKHKVYACEVTHQGLSSPVTKSFNRGEC | 0.631
Anti-IL-12 antibody Ab1 variant W103L VH/L46Q, Y49A VL (antibody, name in Kabat numbering, Ab1 with VH/VL interface substitutions; Kabat numbering) heavy: not shown light: DIVMTQSPLSLPVTPGEPASISCRASQSISINLHWYQQKPGQAPRQLIAFASQSISGVPSRFSGSGSGTDFTLTISSLQPEDFATYYCQQSNSFPLTFGQGTKVEIKRTVAAPSVFIFPPSDEQLKSGTASVVCLLNNFYPREAKVQWKVDNALQSGNSQESVTEQDSKDSTYSLSSTLTLSKADYEKHKVYACEVTHQGLSSPVTKSFNRGEC | 3.86
Anti-IL-12 antibody Ab1 variant W103L VH/Y49A, Y87L VL (antibody, name in Kabat numbering, Ab1 with VH/VL interface substitutions; Kabat numbering) heavy: not shown light: DIVMTQSPLSLPVTPGEPASISCRASQSISINLHWYQQKPGQAPRLLIAFASQSISGVPSRFSGSGSGTDFTLTISSLQPEDFATYLCQQSNSFPLTFGQGTKVEIKRTVAAPSVFIFPPSDEQLKSGTASVVCLLNNFYPREAKVQWKVDNALQSGNSQESVTEQDSKDSTYSLSSTLTLSKADYEKHKVYACEVTHQGLSSPVTKSFNRGEC | 1.51
Anti-IL-12 antibody Ab1 variant W103L VH/- (antibody, name in Kabat numbering, Ab1 with VH/VL interface substitutions; Kabat numbering) heavy: not shown light: DIVMTQSPLSLPVTPGEPASISCRASQSISINLHWYQQKPGQAPRLLIYFASQSISGVPSRFSGSGSGTDFTLTISSLQPEDFATYYCQQSNSFPLTFGQGTKVEIKRTVAAPSVFIFPPSDEQLKSGTASVVCLLNNFYPREAKVQWKVDNALQSGNSQESVTEQDSKDSTYSLSSTLTLSKADYEKHKVYACEVTHQGLSSPVTKSFNRGEC | 0.549
Anti-IL-12 antibody Ab1 variant Y91A VH/L46Q, Y49A VL (antibody, name in Kabat numbering, V domains shown, Ab1 with VH/VL interface substitutions; Kabat numbering) VH: QVQLVQSGAEVKKPGSSVKVSCKASGGTFSDYYLHWVRQAPGQGLEWMGWIDPENGDTEYAPKFQGRVTITADESTSTAYMELSSLRSEDTAVYACARNKELRYFDVWGQGTLVTVSS VL: DIVMTQSPLSLPVTPGEPASISCRASQSISINLHWYQQKPGQAPRQLIAFASQSISGVPSRFSGSGSGTDFTLTISSLQPEDFATYYCQQSNSFPLTFGQGTKVEIKR | 3.97
Anti-IL-12 antibody Ab1 variant W103L VH/A43Q, Y49A VL (antibody, name in Kabat numbering, Ab1 with VH/VL interface substitutions; Kabat numbering) heavy: not shown light: DIVMTQSPLSLPVTPGEPASISCRASQSISINLHWYQQKPGQQPRLLIAFASQSISGVPSRFSGSGSGTDFTLTISSLQPEDFATYYCQQSNSFPLTFGQGTKVEIKRTVAAPSVFIFPPSDEQLKSGTASVVCLLNNFYPREAKVQWKVDNALQSGNSQESVTEQDSKDSTYSLSSTLTLSKADYEKHKVYACEVTHQGLSSPVTKSFNRGEC | 1.12
Anti-IL-12 antibody Ab1 variant W103L VH/P44A, Y49A VL (antibody, name in Kabat numbering, Ab1 with VH/VL interface substitutions; Kabat numbering) heavy: not shown light: DIVMTQSPLSLPVTPGEPASISCRASQSISINLHWYQQKPGQAARLLIAFASQSISGVPSRFSGSGSGTDFTLTISSLQPEDFATYYCQQSNSFPLTFGQGTKVEIKRTVAAPSVFIFPPSDEQLKSGTASVVCLLNNFYPREAKVQWKVDNALQSGNSQESVTEQDSKDSTYSLSSTLTLSKADYEKHKVYACEVTHQGLSSPVTKSFNRGEC | 1.34
Anti-IL-12 antibody Ab1 variant W103M VH/A43Q, Y49A VL (antibody, name in Kabat numbering, Ab1 with VH/VL interface substitutions; Kabat numbering) heavy: not shown light: DIVMTQSPLSLPVTPGEPASISCRASQSISINLHWYQQKPGQQPRLLIAFASQSISGVPSRFSGSGSGTDFTLTISSLQPEDFATYYCQQSNSFPLTFGQGTKVEIKRTVAAPSVFIFPPSDEQLKSGTASVVCLLNNFYPREAKVQWKVDNALQSGNSQESVTEQDSKDSTYSLSSTLTLSKADYEKHKVYACEVTHQGLSSPVTKSFNRGEC | 1.45
Anti-IL-12 antibody Ab1 variant W103M VH/L46Q, Y49A VL (antibody, name in Kabat numbering, Ab1 with VH/VL interface substitutions; Kabat numbering) heavy: not shown light: DIVMTQSPLSLPVTPGEPASISCRASQSISINLHWYQQKPGQAPRQLIAFASQSISGVPSRFSGSGSGTDFTLTISSLQPEDFATYYCQQSNSFPLTFGQGTKVEIKRTVAAPSVFIFPPSDEQLKSGTASVVCLLNNFYPREAKVQWKVDNALQSGNSQESVTEQDSKDSTYSLSSTLTLSKADYEKHKVYACEVTHQGLSSPVTKSFNRGEC | 3.52
Anti-IL-12 antibody Ab1 variant Y91A VH/A43Q, Y49A VL (antibody, name in Kabat numbering, V domains shown, Ab1 with VH/VL interface substitutions; Kabat numbering) VH: QVQLVQSGAEVKKPGSSVKVSCKASGGTFSDYYLHWVRQAPGQGLEWMGWIDPENGDTEYAPKFQGRVTITADESTSTAYMELSSLRSEDTAVYACARNKELRYFDVWGQGTLVTVSS VL: DIVMTQSPLSLPVTPGEPASISCRASQSISINLHWYQQKPGQQPRLLIAFASQSISGVPSRFSGSGSGTDFTLTISSLQPEDFATYYCQQSNSFPLTFGQGTKVEIKR | 1.91
Anti-IL-12 antibody Ab1 variant W103I VH/L46Q, Y49A VL (antibody, name in Kabat numbering, Ab1 with VH/VL interface substitutions; Kabat numbering) heavy: not shown light: DIVMTQSPLSLPVTPGEPASISCRASQSISINLHWYQQKPGQAPRQLIAFASQSISGVPSRFSGSGSGTDFTLTISSLQPEDFATYYCQQSNSFPLTFGQGTKVEIKRTVAAPSVFIFPPSDEQLKSGTASVVCLLNNFYPREAKVQWKVDNALQSGNSQESVTEQDSKDSTYSLSSTLTLSKADYEKHKVYACEVTHQGLSSPVTKSFNRGEC | 4.86
